From patent US20210355185A1

target: IL-12 receptors (human) (UniProt P42701); assay: cell-based or functional assay
Sequence (Q99665 24-862, chain 2 of 2, other chains not shown): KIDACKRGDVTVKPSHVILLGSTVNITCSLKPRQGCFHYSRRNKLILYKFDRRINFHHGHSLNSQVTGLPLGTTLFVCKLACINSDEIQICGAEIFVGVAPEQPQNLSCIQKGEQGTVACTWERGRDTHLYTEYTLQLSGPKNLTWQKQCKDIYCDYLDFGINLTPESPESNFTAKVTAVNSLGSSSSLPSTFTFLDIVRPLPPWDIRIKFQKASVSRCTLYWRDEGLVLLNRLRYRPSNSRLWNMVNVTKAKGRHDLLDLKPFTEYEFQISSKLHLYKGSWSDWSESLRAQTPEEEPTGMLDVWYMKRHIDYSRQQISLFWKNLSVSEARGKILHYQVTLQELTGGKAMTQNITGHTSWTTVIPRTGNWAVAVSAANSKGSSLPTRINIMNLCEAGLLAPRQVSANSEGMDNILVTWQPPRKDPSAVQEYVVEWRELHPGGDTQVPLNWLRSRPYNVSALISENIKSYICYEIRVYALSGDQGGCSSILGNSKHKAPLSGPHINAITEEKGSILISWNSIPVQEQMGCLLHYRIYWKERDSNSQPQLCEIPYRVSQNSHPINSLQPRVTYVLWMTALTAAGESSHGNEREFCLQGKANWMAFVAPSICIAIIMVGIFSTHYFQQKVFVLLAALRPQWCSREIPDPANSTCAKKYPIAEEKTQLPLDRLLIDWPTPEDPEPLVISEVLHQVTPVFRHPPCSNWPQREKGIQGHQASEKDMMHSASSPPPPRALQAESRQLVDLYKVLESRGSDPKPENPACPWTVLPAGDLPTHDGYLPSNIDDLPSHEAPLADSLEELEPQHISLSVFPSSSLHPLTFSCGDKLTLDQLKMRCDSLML

reduction in potency (EC50 for STAT4 phosphorylation) relative to WT IL-12-Fc XENP27201	Substance
> 2 fold	IL-12-Fc fusion comprising IL-12p35(E153Q) (from UniProt P29460 23-328; P29459 23-219)
> 2 fold	IL-12-Fc fusion comprising IL-12p40(E235Q) (from UniProt P29460 23-328; P29459 23-219)
2 fold	IL-12-Fc fusion comprising IL-12p35(D55Q/N151D) (from UniProt P29460 23-328; P29459 23-219)
